Test results as given in the supplement of paper PMC9170038.

Tested on: MS2 coat protein
Assay: apparent KD of MS2 coat protein; designed switch direction (-1 OFF switch, 1 ON switch): -1; higher = weaker reporter binding
How it was run: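 RNA switches sharing common flanks were transcribed by stalled E. coli RNA polymerase on Illumina chips. A doubling series of SNAP-549-labelled MS2 coat protein, from 0.7 or 1.5 nM to 3 µM, was applied in Tris-HCl pH 7.5 buffer with KCl, MgCl2, BSA, DTT, tRNA and Tween-20. Each step lasted 0.8–1.5 h at the bottom of the series and 10–20 min at the top. Normalised cluster fluorescence was curve-fitted, giving apparent KD as the per-design median over clusters.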

[1] = Eterna round: R95, input ligand: microRNA oligo, concentration not stated
[2] = Eterna round: R95, input ligand: FMN 200 uM
[3] = Eterna round: R95, input ligand: none
[4] = input ligand: microRNA oligo, concentration not stated

Sequence: GUACUGACAGGAUAUACAUGAGGAUCACCCAUGUGCCCUUAAUGAUGCAAAGCAUCAAGUAGAAGGGUCUGUAC [Omei Ex3 Model Bachelor's Dilema v22] (Eterna round: R97, puzzle: Exclusion 3)
- apparent KD of MS2 coat protein (input ligand: FMN 200 uM): 42.5 nM
- apparent KD of MS2 coat protein (input ligand: none): 32.8 nM

Sequence: GUACUGACAGGAUAUACAUGAGGAUCACCCAUGUGCCUUAGCGCUACAAAAGUAGCGCGUAGAAGGGUCUGUAC [Omei Ex3 Model Bachelor's Dilema v16] (Eterna round: R97, puzzle: Exclusion 3)
- apparent KD of MS2 coat protein (input ligand: FMN 200 uM): 22.4 nM
- apparent KD of MS2 coat protein (input ligand: none): 14.7 nM

Sequence: GUACUGACAGGAUAUACAUGAGGAUCACCCAUGUGCCUUAUCGCUACAAAAGUAGCGAGUAGAAGGGUCUGUAC [Omei Ex3 Model Bachelor's Dilema v18] (Eterna round: R97, puzzle: Exclusion 3)
- apparent KD of MS2 coat protein (input ligand: FMN 200 uM): 27.1 nM
- apparent KD of MS2 coat protein (input ligand: none): 16.6 nM

Sequence: GUAGAGUCAGGAUAUACAAGAUCGAAAGAUCGAAGAUCCAUACAUGAGGAUCACCCAUGUAGAAGGGACUCUAC [ChP 11-04-2015 #3] (puzzle: Exclusion 2)
- apparent KD of MS2 coat protein [1]: 16.9 nM

Sequence: GUAGAGUCAGGAUAUACGAGAUCGAAAGAUCAGCGAUCCUUACAUGAGGAUCACCCAUGUAGAAGGGACUCUAC [Omei mod 11 to Eli's favorate candidate (ch.parushev)] (Eterna round: R97, puzzle: Exclusion 2)
- apparent KD of MS2 coat protein (input ligand: FMN 200 uM): 254 nM
- apparent KD of MS2 coat protein (input ligand: none): 24.3 nM

Sequence: GUAGAGUCAGGAUAUACGAGAUCGAAAGAUCAGUGGUCCUUACAUGAGGAUCACCCAUGUAGAAGGGACUCUAC [Omei mod 12 to Eli's favorate candidate (ch.parushev)] (Eterna round: R97, puzzle: Exclusion 2)
- apparent KD of MS2 coat protein (input ligand: FMN 200 uM): 39.6 nM
- apparent KD of MS2 coat protein (input ligand: none): 790 nM

Sequence: GUAGAGUGAGGAUAUACGAGAUCGAAAGAUCGGCGAUCCAUACAUGAGGAUCACCCAUGUAGAAGGCACUCUAC [Eli x2 4.002] (Eterna round: R97, puzzle: Exclusion 2)
- apparent KD of MS2 coat protein (input ligand: FMN 200 uM): 521 nM
- apparent KD of MS2 coat protein (input ligand: none): 26.3 nM

Sequence: GUAGUGUUAGGAUAUCUGCCUCCGAGGUAUUCCAUGAAUAGAGAGAAGGGACAUGAGGAUCACCCAUGUGGGUA [Eternabot (L2) Solution 92] (Eterna round: R97, puzzle: Exclusion 4)
- apparent KD of MS2 coat protein (input ligand: FMN 200 uM): 90.5 nM
- apparent KD of MS2 coat protein (input ligand: none): 295 nM

Sequence: GUAGUUCGAGUUAGGAUAUGAUUAAAAUUCGGAUAUCAGAAGGAACUUGAGGAUCACCCAAGUAUAGAUGAUUC [JR_BMEx4_Sub058] (Eterna round: R97, puzzle: Brourd's mod of Exclusion 4)
- apparent KD of MS2 coat protein (input ligand: FMN 200 uM): 91.6 nM
- apparent KD of MS2 coat protein (input ligand: none): 38.1 nM

Sequence: GUAUAACAUGAGGAUCACCCAUGUGAGGAUAUGCGAAUUUCAUCAAAAGAUGAAAUUUGCAGAAGGCACAGUAC [Omei Ex1 A12] (Eterna round: R97, puzzle: Exclusion 1)
- apparent KD of MS2 coat protein (input ligand: FMN 200 uM): 93 nM
- apparent KD of MS2 coat protein (input ligand: none): 66.3 nM

Sequence: GUAUAACUACACGGGCUCAACAUGAGGAUCACCCAUGUCACAUACGCAAGCUUUUUGCUUGUCUUAUCUGUCCGUGA [Quleorraa] (puzzle: Sensor v3, turn-off variant 1)
- apparent KD of MS2 coat protein [2]: 12.3 nM
- apparent KD of MS2 coat protein [1]: 11.9 nM
- apparent KD of MS2 coat protein [3]: 10.7 nM

Sequence: GUAUAGCGAGGAUAUACAUGAGGAUCACCCAUGUGAUCCUUAGGCUGUACAAGCCAAUGUAGAAGGCGCAAAUU [jl-ex3.4.59 ViennaUCT mod] (Eterna round: R97, puzzle: Exclusion 3)
- apparent KD of MS2 coat protein (input ligand: FMN 200 uM): 75.7 nM
- apparent KD of MS2 coat protein (input ligand: none): 147 nM

Sequence: GUCAACGCAGGAUAUUAGAACUUUUACAUGAGGAUCACCCAUGUUAAUUGGGUCUAAGAAUAAGAAGGGCGAUGAA [JR_Ex5_Sub011] (Eterna round: R97, puzzle: Exclusion 5)
- apparent KD of MS2 coat protein (input ligand: FMN 200 uM): 15.8 nM
- apparent KD of MS2 coat protein (input ligand: none): 14 nM

Sequence: GUCACAUGGACAUAGGAUCACAUGAGGAUCACCCAUGUGACUAACAAGCUUUUUGUUCGUCUUAUGUCUAUGUGAAU [Stov1/16-B2] (Eterna round: R97, puzzle: Sensor, turn-off variant 1)
- apparent KD of MS2 coat protein (input ligand: FMN 200 uM): 13.2 nM
- apparent KD of MS2 coat protein (input ligand: none): 12.3 nM

Sequence: GUCAGCUCGUCAGGAUAUACAUGCGUGCUUCGGCACGUAUGAUAGAUCACAUGAGGAUCACCCAUGUAGAAGGGACGAGCUGAC [ENG2/4-B1] (Eterna round: R96, puzzle: Exclusion NG 2)
- apparent KD of MS2 coat protein (input ligand: FMN 200 uM): 13.2 nM
- apparent KD of MS2 coat protein [4]: 9.92 nM
- apparent KD of MS2 coat protein (input ligand: none): 12.5 nM

Sequence: GUCAGCUCGUCAGGAUAUAUUAACAUGAGGAUCACCCAUGUAAGAUCAGGCUUCGGCCAAUGUUAAUAGAAGGGACGAGCUGAC [ENG2/12-B1] (Eterna round: R96, puzzle: Exclusion NG 2)
- apparent KD of MS2 coat protein (input ligand: FMN 200 uM): 132 nM
- apparent KD of MS2 coat protein [4]: 745 nM
- apparent KD of MS2 coat protein (input ligand: none): 438 nM

Sequence: GUCAGCUCGUCAGGAUAUGAACAUGAGGAUCACCCAUGUAAGAUCAAGCUGCUUCGGCAGCAAGUUCAGAAGGGACGAGCUGAU [ENG2/10-B2] (Eterna round: R96, puzzle: Exclusion NG 2)
- apparent KD of MS2 coat protein (input ligand: FMN 200 uM): 167 nM
- apparent KD of MS2 coat protein [4]: 136 nM
- apparent KD of MS2 coat protein (input ligand: none): 104 nM

Sequence: GUCAGCUCGUGAGGAUAUACAUGCGUGCUUCGGCACGAAUUUAAGAUCACAUGAGGAUCACCCAUGUAGAAGGCACGAGCUGAC [ENG2/3-A1] (Eterna round: R96, puzzle: Exclusion NG 2)
- apparent KD of MS2 coat protein (input ligand: FMN 200 uM): 137 nM
- apparent KD of MS2 coat protein [4]: 472 nM
- apparent KD of MS2 coat protein (input ligand: none): 591 nM

Sequence: GUCAGCUCGUGAGGAUAUACAUGCGUGCUUCGGCACGUAUGAUAGAUCACAUGAGGAUCACCCAUGUAGAAGGCACGAGCUGAC [ENG2/4-A1] (Eterna round: R96, puzzle: Exclusion NG 2)
- apparent KD of MS2 coat protein (input ligand: FMN 200 uM): 18.8 nM
- apparent KD of MS2 coat protein [4]: 11.1 nM
- apparent KD of MS2 coat protein (input ligand: none): 12.9 nM

Sequence: GUCAGCUCGUGAGGAUAUAUAUACAUGAGGAUCACCCAUGUAAGAUCAGGCUUCGGCCAAUGUAUAUAGAAGGCACGAGCUGAU [ENG2/11-A2] (Eterna round: R96, puzzle: Exclusion NG 2)
- apparent KD of MS2 coat protein (input ligand: FMN 200 uM): 847 nM
- apparent KD of MS2 coat protein [4]: 695 nM
- apparent KD of MS2 coat protein (input ligand: none): 1120 nM

Sequence: GUCAGGAAUGUAGGAUAUCUGCACGAUUAGUGCAGAGAAGGACAUGAGGAUCACCCAUGUAUAGUAGCUUCGGCUACACCUGAC [ENG1-A1] (Eterna round: R96, puzzle: Exclusion NG 1)
- apparent KD of MS2 coat protein (input ligand: FMN 200 uM): 16.7 nM
- apparent KD of MS2 coat protein [4]: 14 nM
- apparent KD of MS2 coat protein (input ligand: none): 19.5 nM

Sequence: GUCAUCACACAUGGGAUCAACAUGAGGAUCACCCAUGUUGCCAAGUUGUUUGCACGUCUUAUCAUACGUUUUUCGAU [Mod-Jxi] (Eterna round: R97, puzzle: Sensor, turn-off variant 1)
- apparent KD of MS2 coat protein (input ligand: FMN 200 uM): 22.2 nM
- apparent KD of MS2 coat protein (input ligand: none): 22.7 nM

Sequence: GUCCAGGCAGGAUAUGUACAGGAGCACUUGAGGAUCACCCAAGUCCUCGUGUUGUUGUCAGCAGAAGGGCCCAUUA [Dizaquin] (Eterna round: R97, puzzle: Exclusion 5)
- apparent KD of MS2 coat protein (input ligand: FMN 200 uM): 529 nM
- apparent KD of MS2 coat protein (input ligand: none): 187 nM

Sequence: GUCCUACAUGAGGAUCACCCAUGUAAGGAUAUGCUAGCGGUCGGCUGACUGACUGCUAGCAGAAGGUACAUGAU (puzzle: Exclusion 1)
- apparent KD of MS2 coat protein [1]: 15.6 nM

Sequence: GUCCUCAUGACGCCUAAACACAUGAGGAUCACCCAUGUACAGGCUUUUUGUCGUCUUAUAAUAAAACCGAGGAUGCG [Xelaanen] (puzzle: Sensor v3, turn-off variant 1)
- apparent KD of MS2 coat protein [2]: 24.4 nM
- apparent KD of MS2 coat protein [1]: 319 nM
- apparent KD of MS2 coat protein [3]: 29.8 nM

Sequence: GUCCUGCAGCUUUGCUGUAGGCGUACAUGAGGAUCACCCAUGUAGGAUAUGGUAGGCUUUGCUUACUAGAAGGAUAGAGUGAUC [JL EXNG3 1.28] (Eterna round: R96, puzzle: Exclusion NG 3)
- apparent KD of MS2 coat protein (input ligand: FMN 200 uM): 43.1 nM
- apparent KD of MS2 coat protein [4]: 7.08 nM
- apparent KD of MS2 coat protein (input ligand: none): 38.4 nM

Sequence: GUCCUGGACUAUCACAAGCACAUGAGGAUCACCCAUGUCAUGGGUAGAUCCCUAAAUAAAGAUACUGCUCGUCUUAU [Cac sensor turnoff var1 sub6] (Eterna round: R97, puzzle: Sensor, turn-off variant 1)
- apparent KD of MS2 coat protein (input ligand: FMN 200 uM): 160 nM
- apparent KD of MS2 coat protein (input ligand: none): 300 nM

Sequence: GUCCUGGACUAUCACAAGCACAUGAGGAUCACCCAUGUCAUGGGUGGGUCACUAAGUACGGCUACUGCUCGUCUUAU [Cac Sensor turn off var1 sub8] (Eterna round: R97, puzzle: Sensor, turn-off variant 1)
- apparent KD of MS2 coat protein (input ligand: FMN 200 uM): 436 nM
- apparent KD of MS2 coat protein (input ligand: none): 495 nM

Sequence: GUCGAGUGAGGAUAUGGUGAGUAGUGCCAGAGCGCUGCUCACCAGAAGGCACAUGAGGAUCACCCAUGUAUGUC [Mat - Exclusion 4 - Mod of JL - D10] (puzzle: Exclusion 4)
- apparent KD of MS2 coat protein [1]: 12.3 nM

Sequence: GUCGUGCAGCUUUGCUGUACGAGUACAUGAGGAUCACCCAUGUAGGAUAUGGUACGCUUUGCGUGCCAGAAGGACGUGCGUUAG [salish99_ExNG3_r04_001] (Eterna round: R96, puzzle: Exclusion NG 3)
- apparent KD of MS2 coat protein (input ligand: FMN 200 uM): 53.3 nM
- apparent KD of MS2 coat protein [4]: 35.2 nM
- apparent KD of MS2 coat protein (input ligand: none): 39.3 nM

Sequence: GUCGUGUUAGGAUAUAACAACUACUAAUAAAUUAGUAGUUGUUAGAAGGAACAUGAGGAUCACCCAUGUAUGAC [-23.4, -22.9 kcal, A 36%] (Eterna round: R97, puzzle: Exclusion 4)
- apparent KD of MS2 coat protein (input ligand: FMN 200 uM): 192 nM
- apparent KD of MS2 coat protein (input ligand: none): 43.1 nM

Sequence: GUCGUGUUAGGAUAUGGCAACGGCUAGUAAACUAGUUGUUGUUAGAAGGAACAUGAGGAUCACCCAUGUAUGAC [-24.6, -24.1 kcal, A 30%] (Eterna round: R97, puzzle: Exclusion 4)
- apparent KD of MS2 coat protein (input ligand: FMN 200 uM): 98.1 nM
- apparent KD of MS2 coat protein (input ligand: none): 34.4 nM

Sequence: GUCUAGAGAGGAUAUAUUUACAGUGUACGUCGGAUGAUUGCACUUGAGGAUCACCCAAGUAGAAGGCUCGAGGG [EX2 #32] (Eterna round: R97, puzzle: Exclusion 2)
- apparent KD of MS2 coat protein (input ligand: FMN 200 uM): 457 nM
- apparent KD of MS2 coat protein (input ligand: none): 303 nM
